In US20220133733A1 (Bicycle, published 2022):
Like-named read-outs stand apart in the source and are kept apart here. Starred links: 1 amine or outer side, 2 acyl side, 3 side chain; linkers in the order of their positions; H or OH if unused. Positions of bridges follow the written chain, without caps; N, C: chain ends. No end group written: not given here. TBMB = c1c(C[*:1])cc(C[*:3])cc1C[*:2]

T1: human CD38 (human, UniProt P28907 43-300, limits assumed)
T1 construct: also called hCD38
T1 sequence (looked up): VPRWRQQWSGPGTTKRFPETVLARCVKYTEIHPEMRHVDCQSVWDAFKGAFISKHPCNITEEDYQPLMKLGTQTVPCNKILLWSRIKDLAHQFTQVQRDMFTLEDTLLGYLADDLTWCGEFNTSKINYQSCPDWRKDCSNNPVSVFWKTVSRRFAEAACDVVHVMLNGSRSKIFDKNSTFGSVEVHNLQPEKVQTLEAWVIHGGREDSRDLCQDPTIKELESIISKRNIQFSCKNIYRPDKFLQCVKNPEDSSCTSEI

B1: BT66BDC-1 (peptide)
peptide: XXXXXXXXXXXACVPCADFPIWYC
modifications: DM1 toxin conjugated to the peptide through a linker shown only in the drawing of formula (I); N-terminal beta-alanine followed by ten sarcosines (Sar10); Ci, Cii and Ciii bound to TBMB scaffold
notes: The attachment site and linker stand only in drawings; also called BDC of formula (I)
B2: 66-08-52-N001 (peptide)
peptide: ACFTLDGECFLLGENCA
modifications: linker 2-9-16 via TBMB (inferred)

Columns and labels:
human CD38 [1] = target: T1, human CD38; assay: fluorescence polarisation competition, tracer …-Sar6-K(Fl)
human CD38 [2] = target: T1, human CD38; assay: as above; remark: listed apart in the source

| Binder | Ki (human CD38 [1]) [nM] | Ki (human CD38 [2]) [nM] |
| --- | --- | --- |
| B1 | 144 |  |
| B2 |  | 562 |
